Source: PMC7359698

Target: ephrin-A1-S6 (human ephrin-A1 with an internal S6 peptide tag, GPI-anchored) (human) (UniProt P20827)
Experiment: FRET or BRET; heteroFRET by flow cytometry (sensitised emission, compensated; efficiency from median fluorescence intensities); live HEK293 cells in suspension in DPBS + 0.5% BSA, S6-tagged receptor labelled with A547 and A647; for T-cadherin-S6 also followed in time after 10 μg/mL adiponectin

## ephrin-A1-S6 (human ephrin-A1 with an internal S6 peptide tag, GPI-anchored) (from UniProt P20827 19-182) (ligand)
  FRET efficacy: 14%
